The values that follow come from patent US20240408238.

B1: Nme1Cas9 (Cas9 of Neisseria meningitidis strain 8013) (protein)
chain: MAAFKPNSINYILGLDIGIASVGWAMVEIDEEENPIRLIDLGVRVFERAEVPKTGDSLAMARRLARSVRRLTRRRAHRLLRTRRLLKREGVLQAANFDENGLIKSLPNTPWQLRAAALDRKLTPLEWSAVLLHLIKHRGYLSQRKNEGETADKELGALLKGVAGNAHALQTGDFRTPAELALNKFEKESGHIRNQRSDYSHTFSRKDLQAELILLFEKQKEFGNPHVSGGLKEGIETLLMTQRPALSGDAVQKMLGHCTFEPAEPKAAKNTYTAERFIWLTKLNNLRILEQGSERPLTDTERATLMDEPYRKSKLTYAQARKLLGLEDTAFFKGLRYGKDNAEASTLMEMKAYHAISRALEKEGLKDKKSPLNLSPELQDEIGTAFSLFKTDEDITGRLKDRIQPEILEALLKHISFDKFVQISLKALRRIVPLMEQGKRYDEACAEIYGDHYGKKNTEEKIYLPPIPADEIRNPVVLRALSQARKVINGVVRRYGSPARIHIETAREVGKSFKDRKEIEKRQEENRKDREKAAAKFREYFPNFVGEPKSKDILKLRLYEQQHGKCLYSGKEINLGRLNEKGYVEIDHALPFSRTWDDSFNNKVLVLGSENQNKGNQTPYEYFNGKDNSREWQEFKARVETSRFPRSKKQRILLQKFDEDGFKERNLNDTRYVNRFLCQFVADRMRLTGKGKKRVFASNGQITNLLRGFWGLRKVRAENDRHHALDAVVVACSTVAMQQKITRFVRYKEMNAFDGKTIDKETGEVLHQKTHFPQPWEFFAQEVMIRVFGKPDGKPEFEEADTLEKLRTLLAEKLSSRPEAVHEYVTPLFVSRAPNRKMSGQGHMETVKSAKRLDEGVSVLRVPLTQLKLKDLEKMVNREREPKLYEALKARLEAHKDDPAKAFAEPFYKYDKAGNRTQQVKAVRVEQVQKTGVWVRNHNGIADNATMVRVDVFEKGDKYYLVPIYSWQVAKGILPDRAVVQGKDEEDWQLIDDSFNFKFSLHPNDLVEVITKKARMFGYFASCHRGTGNINIRIHDLDHKIGKNGILEGIGVKTALSFQKYQIDELGKEIRPCRLKKRPPVR
Consider B1, for which the “in vitro DNA cleavage by Cas9:sgRNA in the presence of Acr (10:1 Acr:Cas9 molar ratio)” value was “all 5 families inhibited Nme1Cas9” with AcrIIC2Nme; “all 5 families inhibited Nme1Cas9” with AcrIIC4Hpa; “all 5 families inhibited Nme1Cas9” with AcrIIC3Nme; “all 5 families inhibited Nme1Cas9” in the series with AcrIIC5Smu; “all 5 families inhibited Nme1Cas9” with AcrIIC1Nme; “AcrE2 failed to do so” with AcrE2.

B2: Nme2Cas9 (recombinant, purified; Neisseria meningitidis strain De11444) (protein)
chain: PKKKRKVNAMAAFKPNPINYILGLDIGIASVGWAMVEIDEEENPIRLIDLGVRVFERAEVPKTGDSLAMARRLARSVRRLTRRRAHRLLRARRLLKREGVLQAADFDENGLIKSLPNTPWQLRAAALDRKLTPLEWSAVLLHLIKHRGYLSQRKNEGETADKELGALLKGVANNAHALQTGDFRTPAELALNKFEKESGHIRNQRGDYSHTFSRKDLQAELILLFEKQKEFGNPHVSGGLKEGIETLLMTQRPALSGDAVQKMLGHCTFEPAEPKAAKNTYTAERFIWLTKLNNLRILEQGSERPLTDTERATLMDEPYRKSKLTYAQARKLLGLEDTAFFKGLRYGKDNAEASTLMEMKAYHAISRALEKEGLKDKKSPLNLSSELQDEIGTAFSLFKTDEDITGRLKDRVQPEILEALLKHISFDKFVQISLKALRRIVPLMEQGKRYDEACAEIYGDHYGKKNTEEKIYLPPIPADEIRNPVVLRALSQARKVINGVVRRYGSPARIHIETAREVGKSFKDRKEIEKRQEENRKDREKAAAKFREYFPNFVGEPKSKDILKLRLYEQQHGKCLYSGKEINLVRLNEKGYVEIDHALPFSRTWDDSFNNKVLVLGSENQNKGNQTPYEYFNGKDNSREWQEFKARVETSRFPRSKKQRILLQKFDEDGFKECNLNDTRYVNRFLCQFVADHILLTGKGKRRVFASNGQITNLLRGFWGLRKVRAENDRHHALDAVVVACSTVAMQQKITRFVRYKEMNAFDGKTIDKETGKVLHQKTHFPQPWEFFAQEVMIRVFGKPDGKPEFEEADTPEKLRTLLAEKLSSRPEAVHEYVTPLFVSRAPNRKMSGAHKDTLRSAKRFVKHNEKISVKRVWLTEIKLADLENMVNYKNGREIELYEALKARLEAYGGNAKQAFDPKDNPFYKKGGQLVKAVRVEKTQESGVLLNKKNAYTIADNGDMVRVDVFCKVDKKGKNQYFIVPIYAWQVAENILPDIDCKGYRIDDSYTFCFSLHKYDLIAFQKDEKSKVEFAYYINCDSSNGRFYLAWHDKGSKEQQFRISTQNLVLIQKYQVNELGKEIRPCRLKKRPPVRGGGGSGGGGSGGGGSPAAKKKKLDGGGSKRPAATKKAGQAKKKK
Consider B2, for which the “in vitro DNA cleavage by Cas9:sgRNA in the presence of Acr (10:1 Acr:Cas9 molar ratio)” value is “completely inhibited Nme2Cas9” with AcrIIC2Nme; “completely inhibited Nme2Cas9” with AcrIIC4Hpa; “completely inhibited Nme2Cas9” in the series with AcrIIC3Nme; “did not inhibit Nme2Cas9 in vitro even at a 10-fold molar excess” in the series with AcrIIC5Smu; “completely inhibited Nme2Cas9” with AcrIIC1Nme.
